Patent publication US11732027B2, “Protease-activated receptor-2 modulators” (Oasis Pharmaceuticals, LLC, priority 2015, dated 2023)
Numbered stars: 1 amine (or outer) side, 2 acyl side, 3 side chain; on linkers, the order of the positions; unused ones are H or OH. Square brackets hold non-standard residues; d marks the D form. * marks the point of attachment. εLys = N[C@@H](CCCCN[*:1])C(=O)[*:2]; Palmitoyl = CCCCCCCCCCCCCCCC(=O)*; Cit = NC(=O)NCCC[C@H](N)C(=O)O; Ahx = NCCCCCC(=O)O; βAla = NCCC(=O)O

Assays:
PAR2 = biological target: T1, PAR2 (Homo sapiens, UniProt P55085); assay: Calcium flux assay, antagonist activity against SLIGRL in SW620 cells endogenously expressing PAR2; type: cell-based; conditions: 1 min pretreatment, 8 μM SLIGRL agonist
T1 construct: SW620 human colon adenocarcinoma cells that endogenously express PAR2; endogenous in cells; host or cells: SW620 human colon adenocarcinoma cells
T1 sequence (P55085 26-397): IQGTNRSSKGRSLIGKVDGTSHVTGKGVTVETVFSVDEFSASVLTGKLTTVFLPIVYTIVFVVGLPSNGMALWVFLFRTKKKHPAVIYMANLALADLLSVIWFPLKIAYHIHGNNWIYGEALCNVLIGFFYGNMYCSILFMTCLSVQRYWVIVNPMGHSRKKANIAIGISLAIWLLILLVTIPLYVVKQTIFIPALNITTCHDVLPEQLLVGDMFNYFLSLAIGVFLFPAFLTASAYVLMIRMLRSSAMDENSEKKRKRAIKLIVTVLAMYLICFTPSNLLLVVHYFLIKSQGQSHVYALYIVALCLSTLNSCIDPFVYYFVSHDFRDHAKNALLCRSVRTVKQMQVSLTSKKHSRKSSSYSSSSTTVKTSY
Protocol: Table 2 provides the antagonist activity for the resulting palmitoylated peptides (SEQ ID NO: 1-11, 13-41, and 70) of Table 1. Table 2 also provides the antagonist activity for the resulting myristoylated peptide SEQ ID NO: 12 of Table 1. Antagonist activity of the peptides were measured using calcium flux assays with SW620 human colon adenocarcinoma cells that endogenously express PAR2. The calcium signal of […] SLIGRL (SEQ ID NO: 73) following 1 min pretreatment with 3 μM or 10 μM of palmitoylated peptides. Final concentration of DMSO vehicle was 0.2%. Antagonist activity of 3 μM and 10 μM peptides against 8 μM SLIGRL (SEQ ID NO: 73; a known PAR2 agonist) was measured by maximal calcium flux. Experiments were repeated at least 2-3 times each and gave similar results.

db/db mouse = assay: Obese-diabetic (db/db) mouse model, daily SC treatment for 3 weeks; type: in vivo; conditions: db/db mice, 10 mg/kg SC daily, over 3 weeks
Protocol: FIGS. 1A to 1B. Male obese-diabetic (db/db) mice, 6-8 weeks of age were purchase from Charles River Labs. The db/db mouse is a […] animal which serves as a model for diabetes, obesity and dyslipidemia. Animals were randomized according to blood glucose and body weight on day −2 and were allowed to eat a normal chow diet ad libitum. Treatment was initiated from day 0 with mice receiving daily subcutaneous (SC) injections (5 mL/kg) at 7-10 AM. HbA1c was monitored on days 0, 7, 14 and 21. Mice (n=10) were treated daily with either 10 mg/kg N-palmitoylated-SEQ70 (PZ-235) or vehicle (“Veh”). […] HbA1c levels reflect long-term blood glucose levels. […]
FIG. 2. Diabetic mice from the experiment in FIGS. 1A and 1B had their morning blood glucose measured thrice weekly.
FIG. 3. Diabetic mice had their blood glucose profile monitored on days 1, 8 and 22. […]
FIGS. 5A to 5B. Diabetic mice had their plasma triglyceride levels measured at baseline and after 3 weeks of treatment with PZ-235 versus vehicle.
FIG. 6. Diabetic mice had their liver triglyceride levels measured after 3 weeks of treatment with PZ-235 versus vehicle. At termination of the 3 week experiment, livers were isolated from the diabetic mice, snap frozen and liver triglycerides measured.

Max (% Inh), maximal calcium flux (PAR2; 3 uM peptide) [%] | Max (% Inh), maximal calcium flux (PAR2; 10 uM peptide) [%] | food intake versus vehicle group (db/db mouse) | weight gain versus vehicle group (db/db mouse) | Compound
10 | 66 |  |  | 17 (Palmitoyl-[Ahx]LHHDSEPKR[dK]SAIK[dV]-NH2) [compound 17]
38 | 93 |  |  | 40 (GDENSEKKRKWAIK) [compound 40]
24 | 82 |  |  | 4 (RSSAIDENSEKKRKSAIK) [compound 4]
49 | 89 |  |  | 3 (DSEKKRKQAIKLI) [compound 3]
38 | 65 |  |  | 41 (MDENSEKKRKRAIK) [compound 41]
38 | 65 |  |  | 31 (GDENHEKKRKQAIK) [compound 31]
16 | 18 |  |  | 8 (Pal-AIHHDSE[dP]RKSAAKL-NH2) [compound 8]
23 | 29 |  |  | 25 (AMDENSEKKYKSAIKL) [compound 25]
23 | 78 |  |  | 2 (GDHNSEKKRKQAIK) [compound 2]
33 | 85 |  |  | 1 (GHENSEKKRKQAIK) [compound 1]
50 | 84 |  |  | 7 (Pal-AIHHDSE[dP]KRKSAIKL-NH2) [compound 7]
31 | 95 |  |  | 11 (Pal-PLHHDSEPKR[dK]SAIK[dL]-NH2) [compound 11]
17 | 60 |  |  | 16 (Pal-GLHHDSEPKR[dK][βAla]IK[dV]-NH2) [compound 16]
23 | 93 |  |  | 34 (Palmitoyl-GDENSEKK[Cit]KQAIK-NH2) [compound 34]
0 | 65 |  |  | 37 (GDENSEKKRKQAIKLI) [compound 37]
8 | 26 |  |  | 14 (Pal-[εLys]LDENSEKKF[dK]SAIKL[dV]-NH2) [compound 14]
23 | 93 |  |  | 33 (GPDENSEKKPRKQAIK) [compound 33]
75 | 95 |  |  | 9 (Pal-GLHHDSEPKRKSAIKL[dI]-NH2) [compound 9]
 |  | did not vary significantly | did not vary significantly | CCCCCCCCCCCCCCCC(=O)N[C@@H](CCCNC(=N)N)C(=O)N[C@@H](CO)C(=O)N[C@@H](CO)C(=O)N[C@@H](C)C(=O)N[C@@H](CCSC)C(=O)N[C@@H](CC(=O)O)C(=O)N[C@@H](CCC(=O)O)C(=O)N[C@@H](CC(N)=O)C(=O)N[C@@H](CO)C(=O)N[C@@H](CCC(=O)O)C(=O)N[C@@H](CCCCN)C(=O)N[C@@H](CCCCN)C(=O)N[C@@H](CCCNC(=N)N)C(=O)N[C@@H](CCCCN)C(=O)N[C@@H](CO)C(=O)N[C@@H](C)C(=O)N[C@H](C(=O)N[C@@H](CCCCN)C(N)=O)[C@@H](C)CC [SEQ ID NO 70]
18 | 32 |  |  | 5 (AIDENSEKKFKSAIKL) [compound 5]
6 | 0 |  |  | 30 (GLDENSEPKRKSAIKLI) [compound 30]
23 | 93 |  |  | 39 (GDENSEKRWLWAIK) [compound 39]
23 | 65 |  |  | 38 (GDENSEKKRKQAIK) [compound 38]
 | 93 |  |  | 32 (PGDENSEKPKRKQAIK) [compound 32]
23 | 65 |  |  | 35 (Pal-GDENSEKKRKSAIK[dA]-NH2) [compound 35]
65 | 65 |  |  | 36 (GDENSEKKRKQAIKL) [compound 36]
17 | 86 |  |  | 20 (Pal-[εLys]AIDENSEKKFKSAIKL-NH2) [compound 20]
